Results from patent US20110110942A1.
pEC50: −log10 of the molar value.

Target: p75 (Homo sapiens (Human)) (UniProt P08138)
Assay: ELISA, format not described

Chain of UniProt P08138 (P08138 29-250 limits assumed): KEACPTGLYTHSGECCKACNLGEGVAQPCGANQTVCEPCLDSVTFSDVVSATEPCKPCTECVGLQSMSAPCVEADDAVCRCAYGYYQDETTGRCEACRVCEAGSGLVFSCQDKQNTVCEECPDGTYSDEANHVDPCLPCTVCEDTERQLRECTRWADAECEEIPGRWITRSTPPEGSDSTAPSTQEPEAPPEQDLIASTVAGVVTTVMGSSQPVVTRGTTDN

pEC50: 6.52
Substance: Amyloid Precursor Protein (from UniProt P05067 18-286) (ligand)
